Measurements as given in the supplement of paper PMC10567573.

B1: KIAA0774 (parent)
chain: FEDEVKRLGWQQQAELQELEERLQ

Variants of: B1
Assay: protein stability index of a GFP-peptide fusion (GPS, HEK-293T) (PSI 1-6); higher = more stable
Conditions: c terminus: a fixed tail appended
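Also: lentivirally expressed fusions sorted by FACS into six bins by GFP to DsRed ratio, PSI derived from sequencing read proportions per bin multiplied by bin number.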

Row | Variant | protein stability index
1 | L8E | 4.52
2 | L8S | 3.88
3 | Q11Y | 4.76
4 | Q11N | 4.52
5 | Q11L | 4.46
6 | Q11G | 4.84
7 | Q11H | 5.08
8 | Q11S | 4.4
9 | Q11A | 3.64
10 | Q11K | 4.41
11 | Q11P | 4.57
12 | Q11R | 4.44
13 | Q11M | 3.79
14 | V5Q | 4.13
15 | V5L | 3.4
16 | V5I | 3.87
17 | V5F | 2.77
18 | V5A | 3.86
19 | V5K | 2.54
20 | V5R | 2.75
21 | V5T | 3.5
22 | V5S | 3.47
23 | Q17Y | 3.26
24 | Q17F | 3.98

Row | Variant | protein stability index
25 | Q17C | 4.01
26 | Q17R | 4.71
27 | Q17L | 4.54
28 | Q17D | 3.55
29 | Q17I | 4.25
30 | Q17V | 4.51
31 | Q17E | 3.12
32 | Q17H | 4.34
33 | Q17W | 2.31
34 | R7W | 4.03
35 | R7S | 4.65
36 | R7M | 4.41
37 | R7V | 3.9
38 | R7H | 4.04
39 | R7K | 3.32
40 | R7D | 4.89
41 | R7T | 4.45
42 | R7F | 4.32
43 | R7Y | 4.21
44 | R7A | 4.65
45 | R7Q | 4.79
46 | L23T | 4.84
47 | L23P | 5.48
48 | L23E | 4.65

Row | Variant | protein stability index
49 | L23V | 4.65
50 | L23N | 4.42
51 | L23F | 4.09
52 | L23H | 4.53
53 | L23Y | 4.51
54 | L23W | 3.88
55 | L23Q | 4.05
56 | L23K | 4.16
57 | L23I | 3.97
58 | E2I | 3.12
59 | E2W | 3.33
60 | E2M | 2.77
61 | E2R | 4.41
62 | E2T | 2.77
63 | E2D | 3.79
64 | E2S | 2.32
65 | E2G | 3.14
66 | E2N | 2.5
67 | E2V | 2.21
68 | F1I | 3.86
69 | F1N | 4.32
70 | F1Y | 3.38
71 | F1D | 4.72
72 | F1W | 3.93

Row | Variant | protein stability index
73 | F1E | 4.66
74 | F1P | 4.12
75 | F1T | 2.85
76 | F1M | 3.68
77 | F1H | 4.02
78 | F1C | 3.11
79 | F1R | 3.41
80 | F1G | 3.56
81 | A14L | 1.85
82 | A14G | 5.26
83 | A14K | 5.32
84 | A14F | 2.63
85 | A14S | 4.44
86 | A14N | 4.64
87 | A14E | 5.64
88 | E15A | 2.74
89 | E15M | 3.32
90 | E15S | 4.05
91 | E15N | 4.51
92 | E15F | 2.42
93 | E15L | 3.13
94 | E15T | 3.87
95 | E15C | 3.39
96 | E15W | 2.85

Row | Variant | protein stability index
97 | G9Y | 4.13
98 | G9N | 2.62
99 | G9C | 3.36
100 | G9H | 4.11
101 | G9F | 3.96
102 | G9R | 3.75
103 | G9P | 4.17
104 | G9D | 3.9
105 | E20C | 4.34
106 | E20D | 4.84
107 | E20M | 3.81
108 | E20S | 4.49
109 | E20Q | 3.9
110 | E20I | 3.74
111 | E20K | 4.4
112 | E20H | 4.29
113 | E20W | 3.05
114 | E20R | 3.87
115 | D3A | 3.33
116 | D3N | 2.75
117 | D3G | 3.23
118 | D3I | 1.66
119 | D3W | 3.19
120 | D3M | 2.59

Row | Variant | protein stability index
121 | D3Y | 2.85
122 | D3S | 2.58
123 | D3L | 2.95
124 | D3P | 3.42
125 | D3T | 2.69
126 | Q24I | 3.41
127 | Q24G | 4.62
128 | Q24S | 4.01
129 | Q24A | 3.81
130 | Q24M | 3.92
131 | Q24C | 4.22
132 | Q24Y | 3.82
133 | Q24V | 3.12
134 | Q24N | 4.48
135 | Q24W | 3.49
136 | Q24R | 4.14
137 | R22F | 4.62
138 | R22L | 4.13
139 | R22T | 4.83
140 | R22C | 4.48
141 | R22H | 4.88
142 | R22E | 5.78
143 | R22V | 3.77
144 | R22Y | 4.24

Row | Variant | protein stability index
145 | R22P | 5.33
146 | R22Q | 4.95
147 | R22D | 5.9
148 | Q12D | 4.85
149 | Q12F | 2.78
150 | Q12C | 2.14
151 | Q12T | 3.45
152 | Q12V | 2.83
153 | Q12W | 2.9
154 | Q12G | 4.14
155 | Q12A | 3.83
156 | Q12I | 2.45
157 | K6V | 4.52
158 | K6C | 3.87
159 | K6H | 4.14
160 | K6D | 3.75
161 | K6Y | 4.4
162 | K6A | 4.54
163 | K6N | 4.16
164 | K6Q | 4.07
165 | K6R | 4.03
166 | K6T | 4.31
167 | K6W | 3.89
